Test results: a protein production outcome set (Wang et al. 2014)

Assay: label from the status in PepcDB records

Row | Sequence | protein production
1 | MTDLELQQLTQRIAQESFGKSFPYKVVFNQRLKTTGGRYHLNDHHIDINPLMLEEFDEATLIGVIKHELVHYFVHMLNEKPDHRNPHFQQLLRAVGGLRYAPTTSKRRRTPPKLLYQCQGCGLQYPRQRRINTRKYVCSKCRGRLKLL | failed
2 | MENYHRLYELSPLITGWTICVMILRIYKKMLNDHSFELHLILQDEAGKRIEVTIGTRFSAFYYDRLIENQWKMISTFLGTVLLNNFTPFDYILEHSVRKDTLVDLLGALIDFDWLTNSAPNGSDMDGFKLQFRFIDSKFTIYSQDILQCEAHGEYAVDLEKKFRSVRNNKVVIALAFWKIVTYFDGGHRMKIASHAPISTVYPDPDIEPVKEIKMVCIY | failed
3 | MRFGSRIEDGTGAPGAGRLARFAAVGGSGVVVNLAVLHVLAQGLGVPEVAASAVAIEASVLSNFLLHDAITFRDRRGGRGRLARLGRYHAVSLVGVAIQLATFAALALLARHALGRPSLGPLRLPAQAAGIALAFAWSWAGSARWAWAGAGAAVRGPEAGARGRALLPAVLFGALVALHVLPIWLVRYFPTQDGPLHVENVLALLHHGASPLLRGYYEANWGAQPNWLTQALLAPLLSIVSPLTAEKLVLSGYTVLLPISFRAVLPRGARGWWAALAVFPFVHAYPFHMGFWNFCYGVALAFLAAGFWLRTRGRLGPGRFAALAVLSLLLYLAHSVAFAGALLFAGAVLGLRAARSLARARRHPARRRRVAAAYARRAAAGLAAAAPGLLLLGAWLLAHRDRVAARIPLPELAAKLAAGYSLVSIDRRELPLAMAVMLVLAVAVVHAALVRAGRGVRLLAHDGWLVAAAAFVLLYFAVPDVVAAGAHVSDRMALLALLCVAAWLGAASAGPGAPARRAAVALAAIAVVALGVRLDKQRQLSAYLEEYASASAAVEEGRVMLPLALSPYGPQDAHGRRMGYRIKPFLHATGWIVAARGGVDLKNSQANTDHCPVRFPAGRNPFHVIAGSLGRMEGVPPCVDLRGARRLGRLDYVLVWGATRELLETPCGAALAADLAARYEPVWLSAPRGMLEIWRPRAAVAVAR | failed
4 | GGLRLIPLDQVRYLQADEKYVVICHEQGEDLIEESLKSLEKEFSDRFVRIHRNCLIARAELTELRRCSDGQVQAVLRNVVTPLAVSRRCVPLLCDQLR | not failed
5 | IKHWVFDMDGTLTIAVHDFAAIREALSIPAEDDILTHLAALPADESAAKHAWLLEHERDLAQGSRPAPGAVELVRELAGRGYRLGILTRNARELAHVTLEAIGLADCFAEADVLGRDEAPPKPHPGGLLKLAEAWDVSPSRMVMVGDYRFDLDCGRAAGTRTVLVNLPDNPWPELTDWHARDCAQLRDLLSA | failed
6 | MERNANYALVGAISLALFMGLVIFAVWLAKLSFNRDYDVYDILFVGPVRGLSQGGEVHFNGIKVGEVTRIELDKTDTNRVIARVRVTSDVPIKVDSYATLEPQGITGVNYVQITAGAPNKELLKDTVKTGKVPVIRTQRSALSDLLEGGGTVLTRTIEALDRVNRVLSDRNIKSFGATLTNVQAVTQEMRDRKEILADAQKALQSIDQTAQSITELSNSANTLVDGDAKRTLKELGDAAAELRATAKDARGMVTKLEGPASDFATTGLPQLSSAIVTLQSAAESLDRLVGEVEQNPRGVVGKAPAKEVEVKPLEHHHHHH | not failed
7 | MLSLLLILPVIGALIIGFFPGNIPAKQLRQITEVFAVLTLVWSLLVLFKFDVTDPQFQFQEYLPWIPQLGLNYSLAIDGLSLPLVILNNLLTGVAIYSIGPNVNRSRLYYGLILLINAGISGALLAQNLLLFIVFYELELIPFYLMIAIWGGEKRGYASMKFLLYTAFSGLLVLAAFLGMSLLSGSHSFDYNPEITQTFTESAQTILLILILLGFGIKIPLVPLHTWLPDAYTEASPATAILLGGILAKLGTYGIIRFGLQLFPQTWAQFAPVLAIIGTVTVLYGALSAIAQKDIKRMVAYSSIGHMGYILVAAAAGTELSVLGAVAQMVSHGLILALLFHLVGIVERKAGTRDLDVLNGLMNPIRGLPLTSALLITGGMASAGIPGLVGFAAEFIVFQGSFPTFPIPTLLCILASGLTAVYFVILLNRTCFGKLDNQRAYYPKVLASEMIPALVLTAIIFFLGVQPNYLVHWTQTTTNEMIAQLPHETSAIEQLAQGVTLP | failed
8 | MEVKQGLTLFARKQDMKSVWEITGSNIDLVCIGNFCRSLKDLSSRGGTDASTNTCMLPWQYSLQKPLLGVSYLNSDGSSQSTPHGSNGLVKRGATYIVSDDLTICVKKKFDVNLDDIFEHEINIGKTHSLIRDIHCLDYGFRELSFRETTLKHQSHALCGAD | failed
9 | MEDDVTTTERLPAPPLDTASKRVGFISLGCPKALVDSERILTQLRAEGYEVAPSYEGADAVIVNTCGFITPAVEESLSAIGEALDATGKVIVTGCLGERPEKIMERHPKVAAITGSEAVDDVMGHVRELLPIDQGAFTGLLPVAAPGMRAGVETPQRENTRHGDVFAPSVKLTPRHYAYVKVAEGCNHTCAFCIIPKLRGLQVSRDAGAVLYEAYRLIAGGTKELMIIAQDTSAYGVDLRYRESEFQGEQVRAHLTDLAVKLGEMGAWVRMHYVYPYPHVDRVVELMAQGKVLPYLDIPLQHASPKILKLMRRPGAGKQLDTIRRWREICPELVIRSTFIVGFPGETEEDFQELLQFLEDARLDRVGAFPYSDIEEADANALPGAVPEEVKQERLARFMEVAQRISTEKLSEKVGRVMDVIIDEFNDDEDDQPGTRLIGRTKGDAPGIDGQVYLYAGDFAGLVKIGDIVRARIEDSDEYDLFGEVIEKPEWKPNVPQLGHFGKH | failed
10 | MIPELPHAQLDWDDQGRPRSRVFDDVYFSSESGLDETRHVFIEQNRLGQRFAALADGERFVIGETGFGTGLNFLCAWQLFQQQAPTGARLHFVSVEKYPLSPADLQRALALWPELASFSAPLLEQYVAVHGGFQRIVLEGGRVILTLLIGDALEQLPQLDAQVDAWFLDGFAPAKNPDMWTAELFAELARLAAPGSTISTFTSTGWVRRLLNSAGFKMKRTPGIGHKWEVLRGEFLGWPEDAPAPARARPWFARPALGEKTALVIGGGLAGCASAASLAARGWQVQLLERHAELAREASGNPQGVLYLKLSAHGTALSQMILSGFGYTRRQLEHLQRGQDWDGCGVLQLAFNAKEAERQAQLAAAFPADLLHLLDQPQAQARAGIGLEHGGLFYPEGGWVHPPALCQWQASHPRIQVLAHREVLELRRVDEQWQAWDGDRMLASAAVVILAGAAEIKRFPASADLPLKRIRGQITRLPQTAQSQSLATVVCAEGYVAPARLGEHTLGASFDFKSQDLTPTSAEHAGNLEMLREISSDLLQRLGAEQLPLDSLQGRAAFRCTSPDYLPIVGPLADPLAFAETYAALGKDARQVPDLPCPWLDGLYINSGHGSRGLITAPLSGELLAAWLENEPLPLPRSVAEACHPNRFALRRLIRGKA | failed
11 | MLSIFYWLLAIFLINLGIFIFVLTHERRSMWAGLTLTSTLMFLAFLAIDALIIIEAQFPQQHQIIANLLLLASVGVALFILVFVFLLIIIFLYNGIKILIKEGTKWTNFLSLGTGIAIILLIFAYPVLGRSTSAPWFRFIYLFLSMSIFYIIFIMVMYTLTSWLNLININTKKLNYIVVLGAGLLGKKVTPLLASRINRGIEIYHKNPDSKLIMSGGQGPDEEIPESHAMAAYAEEHGVPKSDIIIEDRSKTTNQNLKFSHQLMKPNSTFCIVTNSYHVYRALVLAKRQGLQCIGYGAKTKWYFTLNAFIREFIAYLVITKKMQCSIIGSLAVINIIFAALYYASTQFFS | failed
12 | MSTLPTPPRPRPVDIIIPVYKGLEETRLCLESVLATLPAADGLIVIDDHSPDPALVAYLKDRAAGDRRIRLLHNPENLGFVGTVNRGMALEPERDVLLLNSDTEVAGDWVARLRAAAYADRRIGTVTPFSNNATICSWPRFCQDNPLPPGLDVAGVDRAFAAANPGLSIDIPTGVGFAFYIRRDCLDEVGLFNAEAFGKGYGEENDFCRRAHHRGWRNVLAADTFVYHSGNVSFGVNQERLDSAMRQLLALHPDYRRVVQLHINQDPAQNMRWRAALGILRQSALPVLLFVTHNHGGGTLSHVHELAKALEGRAWGLLLTPGPRNTAVVTLPASLGGDALPFDLEQDWDGLLDLLRYAGVNRLHLHHMLGVPERLLDLPEQLSIPFDFTAHDFHAGCPRVMLCGPGSRYCGQPEERALCDACLAQAPKTEAGDITSWRAAMVARLSRAERLFAPSADTANRLKRMLPALSFRAIPHPDAQGLATNAPPPLLRPCGTTEPLRILVLGALSRAKGADLVEATAREAARGDLPLEIHLLGYGYRPLHRARGRLTAHGRYHPEEIAGHLERIAPHVAWLPAGWPETYSYTLSEVMAAGLPVVVSDLGAPPERILGRPLSWVLPWNVDASTAAAFFGRLRAGEIPASPEAPALSPQSTPRVDFYREGYLAEVFPEKARARLPEREIGELIGQALDRAGARRRRLQCWGDLKVVRQRIWRSLITLLAHPSLFPLVSRIPVSFQERLKRLIKG | failed
13 | MKVIIIGGETTAYYLARSMLSRKYGVVIINKDRELCEEFAKKLKATIIHGDGSHKEILRDAEVSKNDVVVILTPRDEVNLFIAQLVMKDFGVKRVVSLVNDPGNMEIFKKMGITTVLNLTTLITNTVEALIFPDEFSSIIPLEQGIE | failed
14 | AIAFKRKTAWFSDSVEKEVISFWVSEGGDISSWKTAGYLFSDDASSEDTKRIYGSEDYVKNRATVFHSSFLLACQPRQSVTSVPIGHYVLPPDFVQNEMKAIIGRFIWEKDEQVICEEQINPEVPKDILSGETEDHALRERSSQDDYQTVTSQSKVCSCCEMRQYPVNNMISGYVHIDQMRKYSGELKDFLPSLHGHDVSRSNDPTPPFHRKAV | failed
15 | PTWMVVNPVAGGGKWLQYEQHVIRELTKKYRLSIRQTDETTSAESLALQAKQSGVNQVIVSGGDGTVTEVASQLVGTDIQLGIIPLGTANALCHVLYGIGMKLSPVEKACEAILAGHCQRIDTAECNQ | failed
16 | MKLDHNFSNQAIDAFIKISALSVLVLWCFSILKPFLLLMVWGGIIATALYPIVAFFSKKTALSESKVSIILTVIGVLLLLIPLVALSTGIYTSGTELFLGYQDGSIAIPKPKERMQDWPIIGHEAYSFMSLASSNLESLLFKYSAEVKVVAAKAASLVGSLGGGFIQFIVSTIIAGVFMANAAKCERAFILITNRLTGKHGEELIKLSKITIRSVVQGVIGVAVIQATMAGLGMAVVGISASVLGLWVFLVLVFAIIQLPPILILLPIIFYVFSVDTTTAGVLFAVWCVLVSSSDAILKPVLLSRGSHIPIIVILLGALGGMAMSGIVGLFVGAVVLSLTYQMFTVWLKNEAEETQNAKDNP | failed
17 | MQIVTDKNKVALYYKDIAVTYKEFILNTKKIKQFTKIKEFTNNMIYMENRPELLYSFFAIWDSRATCVCIDASSTAVELTYYIDNSDVVKIFTTKMQVEKVKGALSILSKQIEIIVVDEINLSEIKIDENSSENLVINSPEKEDTALILYTSGTTGKPKGVMLTFDLEHHHHHH | failed
